This note sets out measurements from PMC4102620 (Journal of molecular biology, 2014).

The target in this experiment is yeast E1 (Uba1) (yeast, UniProt P22515 1-1024, biotin on the C-terminal biotin ligase acceptor peptide). Nature of the experiment: fluorescent FL-UB-E1 band on non-reducing SDS-PAGE.

B1: fluorescently labeled wild type ubiquitin (FL-UB) (natural protein)
chain: not shown
modifications: fluorescein (iodoacetamide) on the unique cysteine of the N-terminal tag
Consider B1, for which the binding result is given as “binds”.
